Data taken from paper PMC6590870.
“And” between values parts separate entries of the source, which are not always exact repeats. Equal values may be shown once.

Molecular target: Strep-HP1542 (bactofilin HP1542 of H. pylori reference strain 26695, N-terminal Strep-tagged version) (Helicobacter pylori strain 26695)
Assay: cross-linking; glutaraldehyde dilutions 10% to 0.01% added to strep-tagged protein, 10 min at 23°C; SDS-PAGE and immunoblotting

stoichiometry N: 2 and 3
Substance: Strep-HP1542 (bactofilin HP1542 of H. pylori reference strain 26695, N-terminal Strep-tagged version) (natural protein)
